Measurements reported in the nanobody polyreactivity screen of Harvey et al. (2022).

Test: yeast display, Sf9 membrane polyspecificity reagent, FACS + sequencing; frameworks hold sequencing errors
How it was run: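 In a synthetic yeast display library (Saccharomyces cerevisiae BJ5465), nanobody expression was induced with galactose for 36–48 hours. FACS gates were set low and high (top ~1%) using anti-HA fluorescence for expression and streptavidin fluorescence for binding of the Sf9 membrane reagent. Each polyreactivity label is drawn from the gate of origin.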

QVQLVESGGGLVQAGGSLRLSCAASGFTFSVYTMGWYRQAPGNERELVAALRVSSGGTFYADSVKGRFTISRDNAKNTVYLQRNSLKPEDTAVYYCAVDRYTYDPIFSVVRRYDYWGQGTQVTVSS
polyreactivity (PSR sort gate): high polyreactivity

QVQLVESGGGLVQAGGSLRLSCAASGFTFRRYAMGWYRQAPGKEREFVAAITRSSGRTYYADSVKGRFTISRDNAKNTVYLQMNSLKPEDTAVYYCNRDTSIRHYNYWGQGTQVTVSS
polyreactivity (PSR sort gate): high polyreactivity

QVQLVESGGGLYQAGGSLRLSCAASGRIFATNAMRWSRQAPGKERELVATITRSAGRTYYADSVKGRFTISRDNAKNTVYLQMNSLKPEDTAVYYCAASYWDTEPGYREYDYWGQGTQVTVSS
polyreactivity (PSR sort gate): low polyreactivity

QVQLEESGGGLVQAGGSLRLSCPASGITFYRYVMGWNRQAPGKERELDAAINWSTGTTNYADSVKGRFTISRDNAKNTVYLQMNSLKPEDTAVYYCNARYRLRFIYSLRYDYWGQGTQVTVSS
polyreactivity (PSR sort gate): high polyreactivity

QVQLVESGGGLVQAGGSLRLSCAASGRTFALYTMGWYRQAPGKERELVAAINWSGTSTYYADSVKGRFTISRDTAKNTVYLQMNSLKPEDTAVYYCNARGQYNRLMDYWGQGTKVTVSS
polyreactivity (PSR sort gate): low polyreactivity

QVQLVESGGGLVQAGGSLRLSCAASGRIFGYYVMGWYRQAPGKDRELVATISRVGTTNYADSVKGRFTISRDNAKNTVYLQMNSLKPEDTAVYYCNADYTGHRGGNDYWGQGTQVTVSS
polyreactivity (PSR sort gate): low polyreactivity

QVQLVESGGGLVQAGGSLRLSCASSGSIFAFNTLGWYRQAPGKERELVAAINSGGSTYYADSVKGRFTISRDNAKNTVYLQMNSLKPEDTAVYYCNARSYGIVVEYDYWGQGTQVTVSS
polyreactivity (PSR sort gate): low polyreactivity

QVQLVESGGGLVQAGGSLRLSCAATGLFDVYAMGGYRQAPRKERELVAAISSDGSTYYADSVKGRFTISRDNAKNTVYLQMNSLKPEDTAVYYCNADTSGSPYLQGYVGYGYWGQGTQVTVSS
polyreactivity (PSR sort gate): low polyreactivity

QVQLVESGGGLVQAGGSLRLSCAASGRTFLLYAMGWYRQAPGKERELVAAITRGGRTNYADSVKGRFTISRDNAKNTVYLQMNSLKPEDTAVYYCAARYVERHTDYYYWGQGTQVTVSS
polyreactivity (PSR sort gate): low polyreactivity

QVQLVESGGGLVQAGGRLRLSCAASGSTFPKYAMGWYRQAPGKERELVASISVTTGSTYYADSVKGRFTISRDNAKNTVYLQMNSLKPEDTAVYYCAKRTYSRKFRGAYNYWGQGTQVTVSS
polyreactivity (PSR sort gate): high polyreactivity

QVHLVESGGGLVQAGGSLRLSCAASGGTLYANAKGWYRQAPGKERELVATITSSSGSTSYADSVKGRFSISRDNAKNTVYLQKNSLKPEDTAVYYCAKDSHAQGPYRYIHYHHTGDYWGQGTQVTVSS
polyreactivity (PSR sort gate): low polyreactivity

QVQLVESGGGLVQAGGSLRLSCAASGFTFPGYTMGRYRQAPGKERELVAAITWSGGRTYYADSVKGRFTITRDNAKNTVYLQMNSLKPEDTEVYYCAANFGAFYGNRDYWGQGTQVTVSS
polyreactivity (PSR sort gate): high polyreactivity

QVQHVESGGGLVQAGGSLRLSCAASGITFKPNAMGWSRHAPGKERELVAAIDSGGSTNYAYSVKGRFTISLDNAKNTVYLQMNSLKPEDTAVYYCAAPYQDRDLQVSYSTYEGGYWGQGTQVTVSS
polyreactivity (PSR sort gate): low polyreactivity

QVQLVESGGGLVQAGGSHRLSCAASGITFPYYAMGCYRQAPVKERELVAAISSSGGSTYYADSVKGRFTISRDNAKNTVYLQMNSLKPEDTAVYYCNKRYVVYPGNYWRYDYWGQGTQVTVSS
polyreactivity (PSR sort gate): high polyreactivity

QVQLVESGGGLVQAGGSLRLSCAASGSIFRKNAMGWYRQAPGKERELVAAISSSGGRTYYADSVKGRFTISRDNAKNTVYLQMNSLKPEDTAVYYCNTGPGQSFRYNYWGQGTQVTVSS
polyreactivity (PSR sort gate): high polyreactivity

QVQLVESGGGLVQAGGSLRLSCAASGRTFESYGMGWYRQAPGKERELVAAITWSGGDTYYADSVKGRFTISRDNAKNTVYLQMNSLKPEDTAVYYCAKEQGLYSVSPYDYWGQGTQVTVSS
polyreactivity (PSR sort gate): low polyreactivity

QVQLVESGGGLVQAGGSLRLSCAASGSILTFYAMGWYRQAPGKERELVAAITWRGGSTYYAYSVKGRFTISRDNAKNTVYLQMNSLKPEDTAVYYCAAEQVGYYLNWRDYWGQGTQVTVSS
polyreactivity (PSR sort gate): high polyreactivity

QVQLVESGGGLVQAGGSLRLSCAASGSTFPYNAMGWYRQAPGKERELVAAITWRAGRTYYADSVKGRFTISRDNAKNTVYLQMNSLKPEDTAVYYCAKSYQRGVNHYEYWGQGTQVTVSS
polyreactivity (PSR sort gate): high polyreactivity

QVQLVESGGGLVQAGGSLRLICAASGSTFRKYVMGWYRQAPGKERELVAAITKNGGSTYYADSVKGRFTISRDNAKNTVYLQMNSLKPEDTAVYYCATLRTGRVGNQDYDYWGQGTQVTVSS
polyreactivity (PSR sort gate): high polyreactivity

QVQLVESGGGLVQAGGSLRLSCAASGRTFPGYAMGWYRQAPGKARELVAGISYRGGSTYYADSVKGRFTISRDNAKNTVYLQLNSLKPEDTAVYYCARDYSRHKGDYWGQGTQVTVSS
polyreactivity (PSR sort gate): low polyreactivity

QVKLVESGGGLVQAGGSLRLSCSASGLTLSGNAMGWYRQAPGKERELVAAITGRGGSTTYADSVKGRFTISRDNAKNTVYLQMNSLKPEDTAVYYCPATRYSWHNRGSRRHRYDYWGQGTQVTVSS
polyreactivity (PSR sort gate): low polyreactivity

QVQLVESGGGLVQAGGSLRLSCAASGSIFYDNAMGWYRQAPGKERELVAAITSTGGSTYYADSVKGRFTISRDNAKNTVYLQMNSLKPEDTAVYYCNTPTYLYWGFYTYDYWGQGTQVTVSS
polyreactivity (PSR sort gate): low polyreactivity

QEQLQESGGGQVQAGGSLLLSCAASGNIIRYYYMGWYRQAQGKVRELVAAITYGTSTNYADSVKGRFTISRDNAKNTVYLQMNSLKPEDTAVYYCAVDVNYGDPLDNWGEGTQVTVSS
polyreactivity (PSR sort gate): high polyreactivity

QVQLVESGGGLVQAGGSDRLSCAASGSIIDYYAMGWYRQAPGKERELVADITVTGDGTYYADSVKGRFTISRDNAKNTVYLQMNSLKPEDTAVYYCAAAGVYYGVRGTTYAYDYWGQGTQVTVSS
polyreactivity (PSR sort gate): low polyreactivity

QVQLVESGGGLVQAGGSLRLSCAASGSIFVPYAMGWYRQAPGKERELVAVITSGGSTYYADSVKGRFTISRDNAKNTVFLQMNSLKPEDTAVYYCAVDGGEFSSYGYWGQGTQVTVSS
polyreactivity (PSR sort gate): low polyreactivity

QVQLVESGGGLVQAGGSLRLSCAASGRTFYFYTMGWYRQAPGKERELVAAITSGGSTNYADSVKGRFTISRDNAKNTVYLQMNSLKPEDTAVYYCAAIYYRVYGYGLRMYYWGQGTQVTVSS
polyreactivity (PSR sort gate): high polyreactivity

QVQLVESGGGLVQAGGSLRLSCAASGITFYLNAMGWYRQAPGKERELVADITVSGGSTYYADSVKGRFTISRDTAKNTVYLQMNSLIPEDTAVYYCAADLTISYSQEYYYWGQGTQVTVSS
polyreactivity (PSR sort gate): low polyreactivity

QVQLVESGGGLVQAGGSLRLSCAASGSIFYWYAMGWYRQAPGKEREFIADIDWSGGSTYYADSVKGRFTISRDNAKNTVYLQMNSLKPEDTAVYYCAAEARIDIGLYYLDSYYWGQGTQVTVSS
polyreactivity (PSR sort gate): high polyreactivity

QVQLVESGGGLVQAGGSLRLSCAASGSILDWNAMGWYRQAPGKVRELDAAITNGVSTHYADSVKGRFTISRDNAKNTVYFQMNSLKPEETAVYYCAKAFWWRPEWWLRSARGSWGQGTQVTVSS
polyreactivity (PSR sort gate): low polyreactivity

QVQLVESGGGLVQAGGSLRLSCAASGFTFSEYAMGWYRQAPGKERELVAAISRGTSTYYADSVKGRFTISRDNAKNTVYLQMNSVKPEDTAVYYCAAAPSYYPARHGYWGQVTQVTVSS
polyreactivity (PSR sort gate): low polyreactivity

QVQLVESGGGLVQAGGSLRLSCAASGLTLRRYAMGWYRQAPGKEREMVASINSGTSTKYADSVKGRFTISRDNAKNTVYLQMNSLKPEDTAVYYCGAAGYFPTAGSRRAYYYWGQGTQVSVSS
polyreactivity (PSR sort gate): high polyreactivity
